From publication PMC4943861 (ACS chemical biology, 2015)

Tests used:
Fyn = Fyn (human (endogenous in K562), UniProt P06241 1-537); test: cell-based or functional assay
Abl3D = Abl3D (UniProt P00519 38-512); test: cell-based or functional assay
Chain of Abl3D (P00519 38-512): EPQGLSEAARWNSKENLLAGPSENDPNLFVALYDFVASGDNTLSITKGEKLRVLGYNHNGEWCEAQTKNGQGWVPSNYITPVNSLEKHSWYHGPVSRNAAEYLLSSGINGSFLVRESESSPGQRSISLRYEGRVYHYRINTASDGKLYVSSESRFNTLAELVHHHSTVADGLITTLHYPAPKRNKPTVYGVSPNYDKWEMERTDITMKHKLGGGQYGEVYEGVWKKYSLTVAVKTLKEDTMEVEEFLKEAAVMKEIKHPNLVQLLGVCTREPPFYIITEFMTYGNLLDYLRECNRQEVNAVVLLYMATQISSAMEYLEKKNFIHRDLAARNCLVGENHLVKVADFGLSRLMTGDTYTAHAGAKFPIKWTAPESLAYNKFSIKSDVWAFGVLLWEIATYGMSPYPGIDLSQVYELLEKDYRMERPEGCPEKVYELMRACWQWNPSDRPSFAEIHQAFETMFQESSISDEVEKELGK

Chain of Fyn (P06241 whole entry): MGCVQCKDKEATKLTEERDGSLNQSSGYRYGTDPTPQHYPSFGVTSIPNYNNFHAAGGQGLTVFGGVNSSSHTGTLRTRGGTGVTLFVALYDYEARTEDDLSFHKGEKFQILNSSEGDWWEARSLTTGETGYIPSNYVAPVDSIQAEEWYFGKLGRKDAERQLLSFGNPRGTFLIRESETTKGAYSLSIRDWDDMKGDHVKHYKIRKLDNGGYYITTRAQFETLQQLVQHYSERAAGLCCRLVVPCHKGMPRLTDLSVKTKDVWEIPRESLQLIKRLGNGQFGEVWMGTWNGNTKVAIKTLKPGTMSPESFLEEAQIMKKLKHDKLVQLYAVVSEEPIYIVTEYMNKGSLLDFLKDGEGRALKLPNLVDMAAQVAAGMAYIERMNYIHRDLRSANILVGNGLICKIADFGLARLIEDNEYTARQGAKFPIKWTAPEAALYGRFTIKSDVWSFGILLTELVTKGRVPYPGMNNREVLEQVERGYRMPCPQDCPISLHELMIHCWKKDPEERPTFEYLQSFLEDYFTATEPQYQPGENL

IC50 of kinase activity of purified FYN, relative to monovalent 4 (Fyn): 8 fold more potent than 4 | IC50, in vitro kinase activity assay of Abl3D (Abl3D): 8.3 nM
B1: SNAP(HA4)-4 (designed binder)
chain: DKDCEMKRTTLDSPLGKLELSGCEQGLHEIIFLGKGTSAADAVEVPAPAAVLGGPEPLMQATAWLNAYFHQPEAIEEFPVPALHHPVFQQESFTRQVLWKLLKVVKFGEVISYSHLAALAGNPAATAAVKTALSGNPVPILIPCHRVVQGDLDVGGYEGGLAVKEWLLAHEGHRLGKVSSVPTKLEVVAATPTSLLISWDAPMSSSSVYYYRITYGETGGNSPVQEFTVPYSSSTATISGLSPGVDYTITVYAWGEDSAGYMFMYSPISINYRT
modifications: compound 4 (O6-benzylguanine derivative of the pan-kinase inhibitor 2) covalently conjugated to SNAPtag
